# Experimental data: the RNAGym collection of RNA variant scans (doi:10.7554/elife.80360)
# B1: CPEB3 Ribozyme (parent)
# chain: GGGGGCCACAGCAGAAGCGUUCACGUCGCGGCCCCUGUCAGAUUCUGGUGAAUCUGCGAAUUCUGCUGU
# Variants of: B1
# Assay: self-cleavage, relative activity (ratio to wild type); higher = more cleavage; co-transcriptional
row,Variant,self-cleavage
1,C12A A15G,0.514
2,C12A A15C,0.274
3,C12A A15U,0.106
4,C12G G17A,0.148
5,C12G G17C,0.0979
6,C12A U44A,0.349
7,C12A U44G,0.55
8,C12A U44C,0.343
9,C12G G31A,0.334
10,C12G G31U,0.206
11,C12G G31C,0.217
12,C12U G25C,0.121
13,C12U G25U,0.134
14,C12U G25A,0.184
15,C12A G17C,0.139
16,C12A G17U,0.0724
17,C12A G17A,0.187
18,C12U C57A,0.438
19,C12U C57G,0.31
20,C12A A13G,0.735
21,C12A A13C,0.199
22,C12U G48U,1.01
23,C12G U38A,0.739
24,C12G U38G,0.126

row,Variant,self-cleavage
1,C12G U53G,0.654
2,C12G U53A,0.634
3,C12G U53C,0.408
4,C12A U53G,0.335
5,C12A U53A,0.354
6,C12G C32U,0.834
7,C12G C32G,0.334
8,C12G C32A,0.224
9,C12G A52U,0.852
10,C12G A52C,0.792
11,C12G A52G,0.94
12,C12U A60C,0.299
13,C12U A60G,0.716
14,G11U U61A,0.412
15,G11U U61G,0.348
16,C12G A13C,0.26
17,C12G A13U,0.129
18,C12A G48A,0.833
19,C12A G48C,0.771
20,C12G G56C,0.345
21,G11U U67C,0.96
22,G11U U67G,0.949
23,G11U U67A,0.913
24,C12U G50A,1

row,Variant,self-cleavage
1,C12G U61A,0.537
2,C12G U61G,0.592
3,C12G U44C,0.488
4,C12G U44G,0.868
5,C12U G47A,1.03
6,C12U G47U,0.998
7,C12U G47C,1.03
8,C12G C33A,0.68
9,C12G C33G,0.316
10,C12G U64A,0.508
11,C12G G28C,0.157
12,C12G G28A,0.163
13,C12G G50A,0.917
14,C12G G50U,0.84
15,C12G G50C,0.75
16,G11U U36C,0.59
17,G11U U36G,0.167
18,C12G C22U,0.149
19,C12A A51G,0.805
20,C12A G68A,0.843
21,C12A G68U,0.807
22,C12A G68C,0.842
23,C12A A60U,0.257
24,C12A A60G,0.372

row,Variant,self-cleavage
1,C12G G68U,0.917
2,C12G A59G,0.802
3,C12G A59C,0.339
4,C12A U21C,0.464
5,C12A U21A,0.642
6,C12A G58U,0.843
7,C12A G58C,0.653
8,C12G U43A,0.519
9,C12G U43C,0.706
10,C12G A40U,0.404
11,C12G A40G,0.672
12,C12A A52G,0.788
13,C12A A52C,0.571
14,C12A A52U,0.603
15,C12A G28C,0.164
16,C12A G28U,0.141
17,C12G U21G,0.364
18,C12G U21A,0.845
19,G11U U26A,0.552
20,G11U U26C,0.712
21,C12U C27A,0.419
22,C12U C27U,0.297
23,C12A G41C,0.191
24,C12A G41U,0.286

row,Variant,self-cleavage
1,C12A C57A,0.172
2,C12A C57G,0.212
3,C12A C57U,0.317
4,G11U U69G,0.968
5,G11U U69A,0.958
6,C12G C39U,0.533
7,C12G C39G,0.455
8,C12A U64G,0.674
9,C12G G37A,0.174
10,C12A U46C,0.609
11,C12A U46G,0.628
12,C12A C63G,0.354
13,C12U G37C,0.241
14,C12U G37U,0.222
15,C12U G37A,0.302
16,C12U A15U,0.502
17,C12U A15G,0.999
18,C12A U62G,0.312
19,C12A U62A,0.248
20,C12A A16G,0.385
21,C12A A16C,0.128
22,C12A U43C,0.453
23,C12A U43G,0.207
24,C12A U43A,0.259

row,Variant,self-cleavage
1,C12A C24U,0.302
2,C12A C24G,0.138
3,C12A C24A,0.236
4,C12A G14C,0.126
5,C12A C45G,0.614
6,C12A C45A,0.579
7,C12A G47U,0.876
8,C12A G47C,0.837
9,C12A G47A,0.875
10,C12U A23G,0.946
11,C12U A23U,0.963
12,C12U C54G,0.84
13,C12U C54A,0.812
14,C12G C66U,0.69
15,C12G C66A,0.487
16,C12G C66G,0.513
17,C12U C63G,0.443
18,C12U C34G,0.734
19,C12U C34A,0.778
20,C12U C34U,0.959
21,C12G U67A,0.8
22,C12G U67G,0.797
23,C12A C35A,0.149
24,C12A C35U,0.624

row,Variant,self-cleavage
1,C12G C54U,0.828
2,C12G C54A,0.416
3,C12A C27A,0.145
4,C12A C27U,0.117
5,C12G G58A,0.852
6,C12G G58U,0.945
7,C12A A42G,0.41
8,C12A A42C,0.413
9,C12U G17C,0.138
10,C12U G17A,0.281
11,C12U G17U,0.321
12,C12U G28U,0.131
13,C12U G28C,0.175
14,C12U G28A,0.17
15,C12A G19C,0.125
16,C12U C33U,0.972
17,C12U A51G,0.996
18,C12U A51U,0.991
19,C12A A40C,0.209
20,C12A A40G,0.437
21,C12A A40U,0.218
22,C12U G19A,0.12
23,C12U G19C,0.154
24,C12U C18A,0.0961

row,Variant,self-cleavage
1,C12U C18G,0.218
2,C12U C18U,0.6
3,C12G C27U,0.0756
4,C12G C27A,0.216
5,C12U A16G,0.814
6,C12U A16U,0.655
7,C12U A16C,0.134
8,C12G C45A,0.728
9,C12G C45U,0.868
10,C12G C45G,0.819
11,C12A U36C,0.441
12,C12G C57G,0.427
13,C12G C57U,0.336
14,C12G C57A,0.25
15,C12G C35U,0.83
16,C12G U69G,1.04
17,C12G U69A,0.881
18,C12U C45A,0.97
19,G11U U49C,0.847
20,G11U U49G,0.98
21,G11U U49A,0.941
22,C12A U55G,0.172
23,C12A U55A,0.23
24,C12U G30A,0.864

row,Variant,self-cleavage
1,C12A C32A,0.402
2,C12A C32G,0.118
3,C12A C32U,0.79
4,C12A U61C,0.246
5,C12A U61A,0.312
6,C12A U61G,0.316
7,C12G U26C,0.74
8,C12G U26G,0.729
9,C12G U26A,0.695
10,C12G G25U,0.101
11,C12G G25A,0.161
12,C12A C66A,0.686
13,C12A C66G,0.561
14,C12G U46G,0.862
15,C12G U46A,0.91
16,C12G U46C,0.832
17,C12A G56C,0.348
18,C12A G56A,0.502
19,C12A G56U,0.296
20,C12A G25C,0.127
21,G11U U62G,0.381
22,G11U U62A,0.38
23,G11U U62C,0.365
24,C12G C29A,0.213

row,Variant,self-cleavage
1,C12G C29U,0.137
2,C12A U67A,0.671
3,C12A U67G,0.791
4,C12A U67C,0.812
5,G11U U46C,0.79
6,G11U U46G,0.901
7,G11U U46A,0.864
8,C12G C18U,0.178
9,C12G C18A,0.185
10,C12G C18G,0.0782
11,C12U A13G,0.793
12,C12U A13U,0.583
13,C12U A13C,0.629
14,G11U U53C,0.329
15,G11U U53G,0.487
16,C12A A59C,0.347
17,C12A A59U,0.343
18,C12A A59G,0.653
19,C12A A23G,0.42
20,C12A A23U,0.742
21,C12A U26C,0.5
22,C12A G65U,0.932
23,C12A G65A,0.887
24,C12A U69C,0.981

row,Variant,self-cleavage
1,C12A U69A,0.886
2,G11U U43G,0.302
3,G11U U43A,0.392
4,C12G C34A,0.699
5,C12G C34U,0.89
6,C12G G30C,0.367
7,C12A U20C,0.132
8,C12A U20A,0.0992
9,C12A U20G,0.18
10,C12A G30U,0.212
11,C12A G30A,0.322
12,C12G U49G,0.857
13,C12G U55A,0.403
14,C12G U55C,0.558
15,C12G U55G,0.284
16,C12U C22G,0.248
17,C12U C22U,0.16
18,C12U G41U,0.718
19,G11U U38C,0.756
20,C12A C18U,0.143
21,C12A C18G,0.113
22,C12A U49G,0.846
23,C12A U49A,0.893
24,C12G G48U,0.925

row,Variant,self-cleavage
1,C12G G48A,0.953
2,C12U C32A,0.874
3,C12U C32G,0.529
4,C12A C29G,0.105
5,C12A C29U,0.135
6,C12G U62G,0.338
7,G11U U64A,0.467
8,C12A U38G,0.235
9,C12G U20G,0.125
10,C12G U20A,0.228
11,C12G A16G,0.578
12,C12U C29G,0.317
13,C12U C29U,0.232
14,C12A C22G,0.129
15,C12A C22A,0.144
16,C12A C22U,0.111
17,C12U C39U,0.854
18,C12U C39G,0.928
19,C12A G50C,0.591
20,C12A G50U,0.738
21,C12A G50A,0.809
22,C12A C34G,0.495
23,C12A C34A,0.448
24,C12U A42U,0.91

row,Variant,self-cleavage
1,C12U A42G,0.863
2,C12U A42C,0.885
3,C12G G65C,0.934
4,C12G G65U,0.952
5,C12G G65A,0.932
6,C12G A42U,0.61
7,C12G A42G,0.649
8,C12G A42C,0.493
9,C12U G31A,0.905
10,C12U G31C,0.191
11,C12U G31U,0.723
12,C12G G41A,0.353
13,C12G U36A,0.228
14,C12G U36G,0.294
15,C12A C39U,0.355
16,C12A C39A,0.228
17,C12A C39G,0.346
18,C12G G47C,0.888
19,C12G G47U,0.965
20,C12G G47A,0.912
21,C12G A15U,0.171
22,C12G A15G,0.613
23,C12G A15C,0.301
24,C12U G14A,0.19

row,Variant,self-cleavage
1,C12U C66A,0.571
2,G11U U44A,0.677
3,G11U U44C,0.539
4,G11U U44G,0.734
5,G11U U55G,0.225
6,C12G A60G,0.451
7,C12G A60C,0.277
8,C12U A52G,1.01
9,C12U A52C,0.903
10,C12G A51G,0.887
11,C12G A51C,0.79
12,C12A C54G,0.392
13,C12A C54A,0.311
14,C12G C63G,0.339
15,C12G C63A,0.218
16,C12U A40G,0.902
17,C12U A40C,0.358
18,C12U A59C,0.623
19,C12U A59G,0.968
20,C12U A59U,0.822
21,C12A C33A,0.553
22,C12A C33G,0.395
